Test results taken from the supplement of paper PMC10065799, “High-throughput profiling of sequence recognition by tyrosine kinases and SH2 domains using bacterial peptide display” (eLife, 2023).

Key:
[1] = molecular target: SHP2-C SH2; assay: SH2 binding enrichment of the phosphorylated peptide, bacterial display (enrichment ratio); higher = better substrate or ligand; peptides without Tyr show the background
[2] = molecular target: Grb2 SH2 (UniProt P62993); assay: as above
[3] = molecular target: c-Src SH2; assay: as above
[4] = molecular target: EPHB1 (UniProt P54762); assay: phosphorylation enrichment, bacterial display (enrichment ratio); higher = better substrate or ligand; peptides without Tyr show the background
[5] = molecular target: Fes (UniProt P07332); assay: as above
[6] = molecular target: Fyn (UniProt P06241); assay: as above
[7] = molecular target: Jak2 (UniProt O60674); assay: as above
[8] = molecular target: Hck (UniProt P08631); assay: as above
[9] = tested on: AncSZ; assay: as above
[10] = molecular target: MERTK (UniProt Q12866); assay: as above
[11] = tested on: c-Abl (mouse); assay: as above
[12] = tested on: c-Src; assay: as above
[13] = molecular target: FGFR1 (UniProt P11362); assay: as above
[14] = molecular target: EPHB2 (UniProt P29323); assay: as above
[15] = molecular target: FGFR3 (UniProt P22607); assay: as above
[16] = tested on: Fer (mouse); assay: as above
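For SH2 binding enrichment of the phosphorylated peptide, bacterial display in this document: peptide library displayed on the E. coli surface as eCPX fusions, selected cells deep-sequenced, score is each peptide's frequency after selection divided by its frequency in the input.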
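For phosphorylation enrichment, bacterial display in this document: 11-residue human phosphosite peptides and single-mutation variants displayed on the E. coli surface, counted by deep sequencing, each peptide's frequency after selection divided by its frequency in the unselected input library; frequency after pTyr selection over input frequency; kinase dosed for 20-30% of maximal phosphorylation in three min.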

Sequence of MERTK (Q12866 whole entry, looked up): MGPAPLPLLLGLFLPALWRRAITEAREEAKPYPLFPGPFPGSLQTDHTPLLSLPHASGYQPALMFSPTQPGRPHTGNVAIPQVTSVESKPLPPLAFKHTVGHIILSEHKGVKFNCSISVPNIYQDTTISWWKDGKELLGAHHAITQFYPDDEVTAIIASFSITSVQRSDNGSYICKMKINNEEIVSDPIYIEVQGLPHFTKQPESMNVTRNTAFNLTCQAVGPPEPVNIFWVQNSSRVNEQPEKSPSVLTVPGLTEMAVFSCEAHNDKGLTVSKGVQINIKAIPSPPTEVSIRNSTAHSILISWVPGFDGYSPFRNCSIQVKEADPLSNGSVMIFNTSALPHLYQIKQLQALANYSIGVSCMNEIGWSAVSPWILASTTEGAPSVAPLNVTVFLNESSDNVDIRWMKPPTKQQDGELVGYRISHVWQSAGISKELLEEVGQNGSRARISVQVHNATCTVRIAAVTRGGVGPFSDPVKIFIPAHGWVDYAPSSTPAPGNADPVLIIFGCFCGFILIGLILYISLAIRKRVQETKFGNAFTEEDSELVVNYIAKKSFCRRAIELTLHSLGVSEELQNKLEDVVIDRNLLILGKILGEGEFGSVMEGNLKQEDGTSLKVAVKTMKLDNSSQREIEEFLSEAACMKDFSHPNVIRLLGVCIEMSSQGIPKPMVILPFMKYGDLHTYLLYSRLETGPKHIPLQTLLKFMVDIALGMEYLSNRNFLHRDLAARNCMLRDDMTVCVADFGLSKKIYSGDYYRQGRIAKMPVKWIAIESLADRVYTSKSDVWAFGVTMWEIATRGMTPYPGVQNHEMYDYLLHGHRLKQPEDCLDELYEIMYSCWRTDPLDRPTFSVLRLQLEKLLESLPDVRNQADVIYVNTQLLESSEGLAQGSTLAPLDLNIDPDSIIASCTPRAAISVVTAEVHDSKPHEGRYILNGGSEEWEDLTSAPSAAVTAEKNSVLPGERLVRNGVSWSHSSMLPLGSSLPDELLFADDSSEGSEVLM
Sequence of EPHB1 (P54762 whole entry, looked up): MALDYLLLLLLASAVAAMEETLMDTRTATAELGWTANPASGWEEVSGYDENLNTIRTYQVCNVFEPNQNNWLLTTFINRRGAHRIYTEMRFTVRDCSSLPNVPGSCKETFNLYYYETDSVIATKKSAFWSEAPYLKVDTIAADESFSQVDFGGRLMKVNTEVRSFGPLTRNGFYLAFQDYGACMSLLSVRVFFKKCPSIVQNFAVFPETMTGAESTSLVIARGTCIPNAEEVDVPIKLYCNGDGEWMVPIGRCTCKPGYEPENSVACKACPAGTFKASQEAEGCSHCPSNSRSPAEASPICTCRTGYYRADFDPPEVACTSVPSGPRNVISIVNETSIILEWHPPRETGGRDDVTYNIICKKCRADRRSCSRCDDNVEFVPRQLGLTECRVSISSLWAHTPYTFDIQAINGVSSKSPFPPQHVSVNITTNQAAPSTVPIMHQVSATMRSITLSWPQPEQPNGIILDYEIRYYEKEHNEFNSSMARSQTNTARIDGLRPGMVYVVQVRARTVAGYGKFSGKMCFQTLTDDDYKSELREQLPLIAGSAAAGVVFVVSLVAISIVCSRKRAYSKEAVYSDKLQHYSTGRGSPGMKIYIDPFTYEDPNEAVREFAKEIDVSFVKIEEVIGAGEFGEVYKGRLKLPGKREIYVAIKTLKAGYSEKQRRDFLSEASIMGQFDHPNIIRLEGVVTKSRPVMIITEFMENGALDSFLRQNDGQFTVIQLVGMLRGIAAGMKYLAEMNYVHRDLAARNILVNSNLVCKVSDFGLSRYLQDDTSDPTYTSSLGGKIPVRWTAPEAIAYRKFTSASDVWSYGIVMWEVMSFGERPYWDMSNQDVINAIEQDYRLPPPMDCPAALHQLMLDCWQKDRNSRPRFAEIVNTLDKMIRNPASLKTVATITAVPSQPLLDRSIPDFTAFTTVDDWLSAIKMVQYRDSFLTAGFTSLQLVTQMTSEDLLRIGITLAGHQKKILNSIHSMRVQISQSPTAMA
Sequence of FGFR3 (P22607 whole entry, looked up): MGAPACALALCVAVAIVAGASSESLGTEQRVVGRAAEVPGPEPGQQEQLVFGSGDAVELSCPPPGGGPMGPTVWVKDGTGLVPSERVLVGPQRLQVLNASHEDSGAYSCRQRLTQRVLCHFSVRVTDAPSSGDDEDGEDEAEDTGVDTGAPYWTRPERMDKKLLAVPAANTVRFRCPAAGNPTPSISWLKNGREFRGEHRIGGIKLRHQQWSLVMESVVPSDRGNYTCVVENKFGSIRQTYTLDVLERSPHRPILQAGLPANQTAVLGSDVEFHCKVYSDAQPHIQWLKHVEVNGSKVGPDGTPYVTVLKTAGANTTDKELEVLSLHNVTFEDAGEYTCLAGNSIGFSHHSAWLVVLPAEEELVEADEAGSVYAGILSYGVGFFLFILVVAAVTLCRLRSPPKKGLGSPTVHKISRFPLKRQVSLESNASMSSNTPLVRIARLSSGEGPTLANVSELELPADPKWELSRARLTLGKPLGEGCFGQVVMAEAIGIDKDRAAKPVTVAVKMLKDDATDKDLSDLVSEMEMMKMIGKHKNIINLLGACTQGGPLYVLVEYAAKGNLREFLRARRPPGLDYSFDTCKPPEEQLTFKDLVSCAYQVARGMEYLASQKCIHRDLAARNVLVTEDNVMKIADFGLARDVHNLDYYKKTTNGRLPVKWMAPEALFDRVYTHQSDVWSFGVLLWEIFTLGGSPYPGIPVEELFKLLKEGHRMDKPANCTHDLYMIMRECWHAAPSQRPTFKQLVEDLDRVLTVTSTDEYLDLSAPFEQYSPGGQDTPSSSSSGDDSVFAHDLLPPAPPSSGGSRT
Sequence of Hck (P08631 whole entry, looked up): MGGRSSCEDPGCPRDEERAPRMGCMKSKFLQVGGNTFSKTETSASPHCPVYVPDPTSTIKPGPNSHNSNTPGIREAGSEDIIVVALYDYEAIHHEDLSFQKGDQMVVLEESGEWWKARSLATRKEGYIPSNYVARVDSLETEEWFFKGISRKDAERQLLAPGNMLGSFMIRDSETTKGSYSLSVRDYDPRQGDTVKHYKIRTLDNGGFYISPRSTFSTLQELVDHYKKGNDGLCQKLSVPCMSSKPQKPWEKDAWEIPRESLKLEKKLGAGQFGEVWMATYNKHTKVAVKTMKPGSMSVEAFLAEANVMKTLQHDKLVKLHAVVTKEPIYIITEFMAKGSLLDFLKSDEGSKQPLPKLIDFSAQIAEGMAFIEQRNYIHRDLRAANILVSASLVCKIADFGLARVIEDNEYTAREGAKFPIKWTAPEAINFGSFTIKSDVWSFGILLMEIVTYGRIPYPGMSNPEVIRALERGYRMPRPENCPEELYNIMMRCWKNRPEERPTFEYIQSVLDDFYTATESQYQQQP
Sequence of FGFR1 (P11362 whole entry, looked up): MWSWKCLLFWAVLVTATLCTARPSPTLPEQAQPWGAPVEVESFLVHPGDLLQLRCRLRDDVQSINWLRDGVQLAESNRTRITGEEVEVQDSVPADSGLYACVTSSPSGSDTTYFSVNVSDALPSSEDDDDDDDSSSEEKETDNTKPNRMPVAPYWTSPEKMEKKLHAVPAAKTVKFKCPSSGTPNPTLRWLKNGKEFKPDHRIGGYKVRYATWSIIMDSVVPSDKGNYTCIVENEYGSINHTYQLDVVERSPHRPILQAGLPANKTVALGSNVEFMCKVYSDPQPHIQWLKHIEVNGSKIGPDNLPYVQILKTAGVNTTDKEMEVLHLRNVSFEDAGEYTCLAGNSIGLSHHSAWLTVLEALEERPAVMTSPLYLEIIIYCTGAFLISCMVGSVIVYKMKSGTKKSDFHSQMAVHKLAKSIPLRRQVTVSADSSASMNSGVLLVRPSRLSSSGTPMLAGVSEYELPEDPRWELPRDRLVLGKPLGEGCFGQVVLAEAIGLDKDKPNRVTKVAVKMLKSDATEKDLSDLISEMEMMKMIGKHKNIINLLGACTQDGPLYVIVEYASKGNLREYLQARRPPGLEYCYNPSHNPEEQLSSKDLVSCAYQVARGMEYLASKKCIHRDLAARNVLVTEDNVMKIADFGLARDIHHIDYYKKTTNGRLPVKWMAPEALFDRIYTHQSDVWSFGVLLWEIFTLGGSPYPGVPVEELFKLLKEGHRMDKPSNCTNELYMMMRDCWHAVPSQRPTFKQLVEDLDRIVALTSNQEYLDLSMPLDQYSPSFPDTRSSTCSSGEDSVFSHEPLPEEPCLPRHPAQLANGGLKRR
Sequence of Grb2 SH2 (P62993 whole entry, looked up): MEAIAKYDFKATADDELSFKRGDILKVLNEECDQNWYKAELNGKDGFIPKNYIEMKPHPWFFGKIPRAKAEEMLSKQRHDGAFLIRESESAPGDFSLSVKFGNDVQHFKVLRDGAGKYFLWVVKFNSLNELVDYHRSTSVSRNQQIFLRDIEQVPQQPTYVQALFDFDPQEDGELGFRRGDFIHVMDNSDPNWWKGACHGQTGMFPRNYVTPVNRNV
Sequence of Fyn (P06241 whole entry, looked up): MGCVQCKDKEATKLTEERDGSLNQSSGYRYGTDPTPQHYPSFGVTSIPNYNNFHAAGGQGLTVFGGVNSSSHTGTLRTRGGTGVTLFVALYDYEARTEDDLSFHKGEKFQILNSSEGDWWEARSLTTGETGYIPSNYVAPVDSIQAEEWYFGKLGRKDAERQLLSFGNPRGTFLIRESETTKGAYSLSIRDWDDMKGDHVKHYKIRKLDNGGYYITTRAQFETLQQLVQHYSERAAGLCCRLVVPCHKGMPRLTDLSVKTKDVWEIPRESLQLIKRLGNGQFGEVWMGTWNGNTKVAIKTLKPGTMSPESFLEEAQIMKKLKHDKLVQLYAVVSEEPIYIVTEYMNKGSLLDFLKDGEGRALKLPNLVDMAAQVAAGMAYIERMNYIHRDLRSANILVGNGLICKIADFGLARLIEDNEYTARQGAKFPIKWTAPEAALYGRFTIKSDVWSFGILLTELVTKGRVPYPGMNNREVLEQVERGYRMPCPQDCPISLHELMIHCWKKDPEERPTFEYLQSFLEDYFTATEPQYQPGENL

Sequence	SH2 binding enrichment [1]	SH2 binding enrichment [2]	SH2 binding enrichment [3]	phosphorylation enrichment [4]	phosphorylation enrichment [5]	phosphorylation enrichment [6]	phosphorylation enrichment [7]	phosphorylation enrichment [8]	phosphorylation enrichment [9]	phosphorylation enrichment [10]	phosphorylation enrichment [11]	phosphorylation enrichment [12]	phosphorylation enrichment [13]	phosphorylation enrichment [14]	phosphorylation enrichment [15]	phosphorylation enrichment [16]
LKEIHYPPYTD [ALDH3B2_Y362]	0.975	0.896	0.654	0.735	1.17	0.718	1.01	0.929	1.18	0.573	0.763	0.917	0.645	0.744	0.826	0.584
NTFEKYLGEEF [TF_Y669_YF]	0.656	0.667	0.378	0.587	1.21	0.454	0.922	0.479	1.08	0.379	0.641	0.429	0.509	0.572	0.75	0.491
IRFSDYVEVAD [PHACTR1_Y525]	0.838	1.01	0.58	1.42	1.01	0.538	1.01	0.519	1.41	0.434	0.755	0.448	1.88	0.977	1.58	0.431
SLFNGYVYSGM [NEIL3_Y71_V76M]	2.05	1.06	2.6	0.653	0.994	5.64	1.15	2.72	0.844	0.548	0.625	5.4	0.585	0.579	0.659	0.581
YTHSDYQYSQR [PKP2_Y166]	0.638	0.785	0.595	0.479	0.594	0.403	0.757	0.391	0.892	0.474	0.444	0.434	0.467	0.482	0.507	0.42
KVITDYFVDMK [MPP4_Y566_YF]	0.717	0.757	0.595	0.429	1.36	0.455	0.858	0.561	0.897	0.439	0.673	0.435	0.748	0.547	0.795	0.451
KVDKEYEVHVR [GHR_Y226_R229H]	0.566	0.804	0.52	0.68	0.956	0.485	0.725	0.497	0.934	0.416	0.576	0.444	0.474	0.548	0.555	0.498
KLADMYGGGKD [CDH1_Y876_E880K]	0.376	0.779	0.412	0.468	0.692	0.425	0.547	0.476	0.584	0.346	0.528	0.353	0.462	0.497	0.424	0.414
KRFRIYHLATS [BRCA2_Y3009_YF]	1.18	1.05	1.24	0.353	1.57	0.434	0.439	0.454	0.567	0.38	0.391	0.482	0.358	0.435	0.481	0.422
ATGLIYIGSHD [AASDH_Y870_T865A]	0.526	0.759	0.598	0.724	1.15	0.427	0.809	0.469	0.827	0.543	0.881	0.492	0.427	0.724	0.684	0.52
LASLIYNFVLF [AQP6_Y231]	0.989	1.11	0.692	1.93	2.2	7.62	1.51	5.89	1.73	7.85	4.1	7.23	3.53	4.52	3.34	14.5
DIMDLYNQPEP [IL36A_Y96]	0.597	0.879	0.557	0.547	1.21	0.69	1.55	0.817	1.5	0.481	0.852	1.06	0.491	0.602	0.688	0.66
FKDYFYCWNTF [AICDA_Y146]	0.662	0.878	0.474	4.05	1.34	0.652	3.71	0.557	2.04	2.8	1.22	1.41	8.79	2.87	7.02	1.46
KDGNGYISAAE [CALM1_Y100]	0.746	0.742	0.571	0.394	0.76	0.463	0.685	0.542	0.646	0.47	0.546	0.416	0.477	0.491	0.594	0.389
VSRGRYRPQEC [B4GALT4_Y113]	0.409	0.62	0.43	0.527	0.643	0.574	0.655	0.49	0.754	0.575	0.545	0.657	0.475	0.476	0.515	0.542
RDMMDYMLQGV [CYP21A2_Y259]	0.997	0.812	0.531	1.34	1.19	0.673	1.63	0.581	1.2	0.488	0.962	1.09	0.73	0.827	0.869	0.612
